From paper doi:10.1101/2023.08.16.553474

B1: UGlow RNA (ssRNA)
RNA: ACAGUCCAGUCGCAGCAGACUCCCUCACAGCACCCACCUCUCCCACAAUCGGAUCCCAGG
B2: UGhigh RNA (ssRNA)
RNA: UGCUGGGAUGGUCAUGGUGGGUGACCCUGGGAUGGCCGCGGUGGGUGACCCUGGAAUGGU
B3: 62 RNA (ssRNA)
RNA: UGGGCCUGGAAUAGUGGGGGCCCAGGGGAAGCUGCGAUGUGCUUCUGAGUGUUUGGAACGAG

Assays:
Test in all cases: fluorescence anisotropy
MYCN FL = MYCN FL (UniProt P04198 1-464)
MYCN 1-154 dMBII = MYCN 1-154 dMBII (UniProt P04198 1-154, del111-134)
MYCN 1-154 = MYCN 1-154 (UniProt P04198 1-154)

Binder | Kd (MYCN FL) | binding result (MYCN 1-154 dMBII) | binding result (MYCN 1-154)
B1 | 511 nM |  | 
B2 | 175 nM | binds | 
B3 |  |  | binds
